Paper PMC12207360, “Hyperpolarization Modulation of the T‐Type hCav3.2 Channel by Human Synenkephalin [1–53], a Shrew Neurotoxin Analogue without Paralytic Effects” (Angewandte Chemie (International Ed. in English), 2025)
Where no end group is shown, it is not given here.

Type: physicochemical
Conditions: cysteine/cystine redox condition, 20% EtOH / 0.1 M aq. NH4OAc, pH 8.5, 37 °C; misfolded products predominantly converted to 2
From the text: We first examined the preparation of hSYN from the linear precursor peptide 1 (Scheme 1a). Oxidation of 1 in air or with DMSO gave only misfolded analogues with two (2SS) and/or three (3SS) disulfide bonds (Figure S1a,b). Meanwhile, a redox condition using cysteine / cystine in EtOH / aq. NH4OAc^[ [51] ^] smoothly promoted the formation of three disulfide bonds to afford hSYN (2) in 65% yield almost as a single isomer, along with trace amounts of misfolded 3SS analogue. […]
SH 前述の 22 の混合物に、前述のバッファーSHB (290 µL; 第四章第一節第四項) に溶解したSH 21SH
N-terminal segment(7.2 mg, 2.1 µmol) と TCEP-HCl (0.32 mg, 1.1 µmol) C-terminal segmentを加えた。6 M 水酸化ナトリウム水溶液1 で反応溶液を pH 7.0 に調整した後、室温で 22 時間攪拌した。得られた混合物を ODS カ
ラムクロマトグラフィー [COSMOSIL 75 C18 OPN (φ 8 x 8 mm), MeCN / H2O (0.1% TFA) = 0:1 Linear peptide 1. […]
rate 1.0 mL/min, UV 215 nm (A; 0.1% aq. TFA, B; 0.08% TFA/MeCN) ]. MS (MALDI-TO F ) m/z 3001.0 (calculated for […]
2: tR 12.2 min [Develosil® ODS HG-5 (5 µm, f 4.6 mm × 250 mm), temp. […] 40 °C, 25% for 10 min and 25–45% linear gradient for 20 min, flow rate […], UV215 nm (A; 0.1% aq. TFA, B; 0.08% TFA/MeCN), see Figure S7]; MS (MALDI-TO F ) m/z 2998.0 (calculated […]

Q: Which thermodynamic stability does the source give for “human synenkephalin [1–53] (ECSQDCATCSYRLVRPADINFLACVMECEGKLPSLKIWETCKELLQLSKPELP; disulfide (positions not given here); also: Type II disulfides, places not given here; UniProt P01210 25-77, looked up, fragment) [compound 2, human synenkephalin N-terminal part [1–53], three disulfide bonds Cys(I)–Cys(V), Cys(II)–Cys(IV), Cys(III)–Cys(VI)]” here?
A: Its thermodynamic stability is “most thermodynamically stable”.
